Measured values reported in publication PMC8341435.

Assays:
[1] = biological target: HIV-1 CAP256 SU gp140 NFL, mammalian cell-produced (HEK293) (HIV-1 (CAP256 SU virus)); experiment: SEC
[2] = biological target: HIV-1 CAP256 SU gp140 NFL, mammalian cell-produced (HEK293) (HIV-1 (CAP256 SU virus)); experiment: native gel or EMSA; BN-PAGE of the pooled trimer fractions on 4-12% NativePAGE Bis-Tris gels, Coomassie-stained
[3] = biological target: HIV-1 CAP256 SU gp140 NFL, plant-produced (Nicotiana benthamiana) (HIV-1 (CAP256 SU virus)); experiment: SEC

Substance	stoichiometry N [1]	stoichiometry N [2]	stoichiometry N [3]
HIV-1 CAP256 SU gp140 NFL, mammalian cell-produced (HEK293) (domain or fragment)	3	3	
HIV-1 CAP256 SU gp140 NFL, plant-produced (Nicotiana benthamiana) (domain or fragment)			3
